Results from IntAct's records for PubMed 22327296.

B1: Transcription factor JunD (Homo sapiens), P17535 (parent)
chain: METPFYGDEALSGLGGGASGSGGSFASPGRLFPGAPPTAAAGSMMKKDALTLSLSEQVAAALKPAAAPPPTPLRADGAPSAAPPDGLLASPDLGLLKLASPELERLIIQSNGLVTTTPTSSQFLYPKVAASEEQEFAEGFVKALEDLHKQNQLGAGAAAAAAAAAAGGPSGTATGSAPPGELAPAAAAPEAPVYANLSSYAGGAGGAGGAATVAFAAEPVPFPPPPPPGALGPPRLAALKDEPQTVPDVPSFGESPPLSPIDMDTQERIKAERKRLRNRIAASKCRKRKLERISRLEEKVKTLKSQNTELASTASLLREQVAQLKQKVLSHVNSGCQLLPQHQVPAY

Variants of: B1
Details: with mk10_human MAPK10, P53779
mk10_human MAPK10, P53779, sequence (P53779 whole entry): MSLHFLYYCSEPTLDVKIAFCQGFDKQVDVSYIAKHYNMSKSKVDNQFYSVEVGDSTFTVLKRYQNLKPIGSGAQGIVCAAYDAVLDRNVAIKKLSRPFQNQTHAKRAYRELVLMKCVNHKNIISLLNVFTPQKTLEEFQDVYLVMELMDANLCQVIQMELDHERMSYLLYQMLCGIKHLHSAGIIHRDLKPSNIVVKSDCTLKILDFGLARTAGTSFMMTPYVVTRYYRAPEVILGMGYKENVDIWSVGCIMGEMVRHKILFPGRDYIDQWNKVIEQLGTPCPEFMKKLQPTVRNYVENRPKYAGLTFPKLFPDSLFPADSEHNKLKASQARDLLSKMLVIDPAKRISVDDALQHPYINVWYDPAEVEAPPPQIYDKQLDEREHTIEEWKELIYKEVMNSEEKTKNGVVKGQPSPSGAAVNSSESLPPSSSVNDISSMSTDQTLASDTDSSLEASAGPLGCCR

effect of a mutation on the interaction | Variant
disrupting interaction strength | K46A;K47A
disrupting interaction strength | L52A;L54A
